Drawing on article PMC11599015, this text covers Kd and stoichiometry N for one substance.

In the assay the target is recombinant circular RABV N10-RNA complex purified from insect cells (phosphorylated) (rabies virus (RABV)) (UniProt Q8JXF6). As to the kind of experiment: SPR. (In general: SPR reads the build-up and loss of mass on a sensor chip optically.)
Chain of recombinant circular RABV N10-RNA complex purified from insect cells (phosphorylated) (rabies virus (RABV)) (Q8JXF6 whole entry, one chain of several): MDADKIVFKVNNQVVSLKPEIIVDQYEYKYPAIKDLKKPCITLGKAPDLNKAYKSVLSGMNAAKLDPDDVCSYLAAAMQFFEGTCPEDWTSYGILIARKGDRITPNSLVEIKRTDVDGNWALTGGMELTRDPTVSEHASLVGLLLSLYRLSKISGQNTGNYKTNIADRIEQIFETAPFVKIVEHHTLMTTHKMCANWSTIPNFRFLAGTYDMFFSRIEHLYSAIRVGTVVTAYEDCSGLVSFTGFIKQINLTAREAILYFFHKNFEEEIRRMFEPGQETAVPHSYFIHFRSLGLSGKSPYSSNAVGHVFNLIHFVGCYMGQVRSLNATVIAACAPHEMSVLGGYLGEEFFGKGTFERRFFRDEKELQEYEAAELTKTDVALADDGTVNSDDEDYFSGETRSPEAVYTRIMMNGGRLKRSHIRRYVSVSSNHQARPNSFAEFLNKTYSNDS

In general, Kd refers to the equilibrium constant for the complex coming apart. The stoichiometry N is the number of molecules, sites or subunits per partner or assembly. Take “RABV phosphoprotein P deleted of residues 90-133 (dimerization domain) (domain or fragment)”: the dissociation constant Kd stood at 80 nM and the stoichiometry N was found to be 1.7.
